The series “SEC” concerns the molecule itself. The series can be described thus: SEC. In general terms: In gel filtration, larger molecules generally elute earlier.
The next series deals with dansylated CaM7 (Arabidopsis thaliana, UniProt P59220 1-149, dansyl (labelled with dansyl chloride; sites not stated)). The series is described as follows: other fluorescence titration.

No end group written: not given here. SUMO = small ubiquitin-like modifier

B1: SUMO-AtFBA5 (Arabidopsis fructose bisphosphate aldolase 5 with N-terminal His-SUMO tag) (enzyme, Arabidopsis thaliana, UniProt O65581 1-358, looked up)
chain: MSAFVGKYADELIKTAKYIATPGKGILAADESTGTIGKRFASINVENIESNRQALRELLFTSPGTFPCLSGVILFEETLYQKTTDGKPFVELLMENGVIPGIKVDKGVVDLAGTNGETTTQGLDSLGARCQEYYKAGARFAKWRAVLKIGATEPSELSIQENAKGLARYAIICQENGLVPIVEPEVLTDGSHDIKKCAAVTETVLAAVYKALNDHHVLLEGTLLKPNMVTPGSDSPKVAPEVIAEYTVTALRRTVPPAVPGIVFLSGGQSEEEATLNLNAMNKLDVLKPWTLTFSFGRALQQSTLKAWAGKTENVAKAQATFLTRCKGNSDATLGKYTGGASGDSAASESLYEEGYKY
A word on the stoichiometry N: it is the number of molecules, sites or subunits per partner or assembly. As a reminder, the Kd is the equilibrium constant for the complex coming apart. As for B1, the “stoichiometry N” value in “SEC” was found to be 4. In addition, binding with dansylated CaM7 was characterised by a dissociation constant (Kd) of 190 nM.

B2: SUMO-AtFBA4 (Arabidopsis fructose bisphosphate aldolase 4 with N-terminal His-SUMO tag) (enzyme, Arabidopsis thaliana, UniProt F4KGQ0 1-393, looked up)
chain: MSCFKSKFAGKSYFRRTFHSSIIQFHPQLSILIWHRRYSIIRTYELIANAAYIGTPGKGILAADESTGTIGKRFVSINVENVESNRRALRELLFTTPGALQYISGIILFEETLYQKTASGKLFVDVMKEAGVLPGIKVDKGTVELAGTNGETTTTGLDGLGDRCKKYYEAGARFAKWRAVLKIGNNEPSELAIHENAYGLARYAVICQENGLVPIVEPEILVDGSHDIEKCAYVTERVLAACYKALSDHHVILEGTLLKPNMVTPGSDSGSKVKPEVIAKHTVRALQRTVPAAVPAVVFLSGGQSEEEATVNLNAINQLKGKKPWSLTFSYGRALQQSTLKAWGGKEENVDKAQKAFLARAKANSEATLGGYKGDAQLGEGASESLHVKDYKY
Take B2: the “stoichiometry N” value in “SEC” is 4.
In turn, {SUMO}-IKKCAAVTETVLAAVYKALN (domain or fragment, not fully specified) [SUMO-AtFBA5 CaMBD (residues 194-213)] returned a Kd with dansylated CaM7 of 290 ± 130 nM.

The values are drawn from article doi:10.1101/2024.03.29.587371 (bioRxiv, 2024).
